Source: patent US7192735

Target: EntF (E. coli enterobactin synthetase component), apo form, P11454
Sequence (P11454 whole entry): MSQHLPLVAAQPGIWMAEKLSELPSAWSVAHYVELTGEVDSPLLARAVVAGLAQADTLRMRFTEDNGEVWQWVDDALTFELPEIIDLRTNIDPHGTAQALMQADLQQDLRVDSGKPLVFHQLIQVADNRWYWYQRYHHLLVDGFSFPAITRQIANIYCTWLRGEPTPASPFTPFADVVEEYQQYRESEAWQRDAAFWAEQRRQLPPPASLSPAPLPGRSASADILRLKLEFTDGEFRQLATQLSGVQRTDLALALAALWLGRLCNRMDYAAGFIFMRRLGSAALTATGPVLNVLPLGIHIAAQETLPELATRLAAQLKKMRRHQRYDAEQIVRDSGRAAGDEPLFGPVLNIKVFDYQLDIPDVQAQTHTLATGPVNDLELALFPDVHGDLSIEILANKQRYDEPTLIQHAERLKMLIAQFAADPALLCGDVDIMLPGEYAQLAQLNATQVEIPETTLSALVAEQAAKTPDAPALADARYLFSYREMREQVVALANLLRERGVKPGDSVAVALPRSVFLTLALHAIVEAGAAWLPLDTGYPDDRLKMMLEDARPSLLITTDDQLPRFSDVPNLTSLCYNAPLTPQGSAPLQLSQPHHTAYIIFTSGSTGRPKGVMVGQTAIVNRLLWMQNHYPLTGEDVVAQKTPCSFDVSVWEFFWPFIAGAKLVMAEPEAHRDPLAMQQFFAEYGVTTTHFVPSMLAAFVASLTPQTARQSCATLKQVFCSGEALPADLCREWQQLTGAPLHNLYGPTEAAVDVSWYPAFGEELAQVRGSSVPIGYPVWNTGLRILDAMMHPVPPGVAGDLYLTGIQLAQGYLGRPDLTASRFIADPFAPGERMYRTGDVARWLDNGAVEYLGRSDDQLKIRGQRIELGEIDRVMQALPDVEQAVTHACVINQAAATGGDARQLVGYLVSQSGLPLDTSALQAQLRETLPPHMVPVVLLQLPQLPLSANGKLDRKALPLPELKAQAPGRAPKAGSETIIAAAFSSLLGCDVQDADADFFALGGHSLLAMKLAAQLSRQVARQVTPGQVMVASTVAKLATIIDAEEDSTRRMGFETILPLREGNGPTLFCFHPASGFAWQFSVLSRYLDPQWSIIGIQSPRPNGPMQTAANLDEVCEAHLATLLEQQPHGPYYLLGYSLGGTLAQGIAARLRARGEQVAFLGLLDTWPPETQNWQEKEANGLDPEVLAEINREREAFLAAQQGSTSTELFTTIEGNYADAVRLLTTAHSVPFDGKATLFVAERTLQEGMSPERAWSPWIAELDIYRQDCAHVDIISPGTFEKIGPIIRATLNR

B1: o195 (E. coli ORF of unknown function), recombinant from pET28b-o195 (protein)
chain: MYRIVLGKVSTLSAAPLPPGLREQAPQGPRRERWLAGRALLSHTLSPLPEIIYGEQGKPAFAPEMPLWFNLSHSGDDIALLLSDEGEVGCDIEVIRPRANWRWLANAVFSLGEHAEMDAVHPDQQLEMFWRIWTRKEAIVKQRGGSAWQIVSVDSTYHSSLSVSHCQLENLSLAICTPTPFTLTADSVQWIDSVN
  time course of incorporation of radiolabel into EntF: EntF undergoes almost no modification in the presence of 15-fold higher concentrations of ACPS and o195
